Test results taken from article PMC9122904, “Insights into the client protein release mechanism of the ATP-independent chaperone Spy” (Nature Communications, 2022).

Experiments:
Test in all cases: BLI; Octet RED96; client biotinylated and loaded on streptavidin sensors; Spy or Spy variant in solution at 0.25, 0.5, 1, 1.5 and 2 μM; 40 mM HEPES, 150 mM NaCl, pH 7.5; Kd calculated as koff/kon
Conditions in all cases: both partners purified
Spy_(29-124) = target: T1, Spy_(29-124) (UniProt P77754 52-147)
T1 construct: also called termini-free Spy; source: E. coli BL21 (DE3), purified (Ni-NTA, cation exchange, SEC); not shown: His6, N-terminal, cleaved; SUMO, N-terminal, cleaved
T1 sequence (looked up): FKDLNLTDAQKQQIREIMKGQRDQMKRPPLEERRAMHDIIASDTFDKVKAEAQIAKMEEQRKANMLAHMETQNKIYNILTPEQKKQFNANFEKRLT
In short: (§1)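 Biolayer interferometry used an Octet RED96: client proteins biotinylated with EZ-link NHS-biotin (1:1 molar ratio) were loaded on streptavidin sensors, dipped into 40 mM HEPES, 150 mM NaCl, pH 7.5 containing Spy protein at 0.25, 0.5, 1, 1.5 and 2 μM, then moved to Spy-free buffer. Wavelength-shift association and dissociation curves were fitted in SigmaPlot 12.0, giving observed association rate and koff. kon came from observed rate versus Spy concentration; Kd was koff/kon.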

Spy_(27-130) = target: T2, Spy_(27-130) (UniProt P77754 50-153)
T2 construct: Spy chaperone, residues 27-130; source: E. coli BL21 (DE3), purified (Ni-NTA, cation exchange, SEC); not shown: His6, N-terminal, cleaved; SUMO, N-terminal, cleaved
T2 sequence (looked up): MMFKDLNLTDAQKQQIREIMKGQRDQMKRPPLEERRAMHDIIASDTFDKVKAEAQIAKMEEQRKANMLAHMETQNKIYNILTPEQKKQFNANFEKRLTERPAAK
In short: as §1

Spy_(24-124) = target: T3, Spy_(24-124) (UniProt P77754 47-147)
T3 construct: source: E. coli BL21 (DE3), purified (Ni-NTA, cation exchange, SEC); not shown: His6, N-terminal, cleaved; SUMO, N-terminal, cleaved
T3 sequence (looked up): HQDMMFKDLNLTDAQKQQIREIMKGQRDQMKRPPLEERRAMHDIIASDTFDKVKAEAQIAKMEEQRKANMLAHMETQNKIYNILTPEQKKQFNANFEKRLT
In short: as §1

Spy_(21-127) = target: T4, Spy_(21-127) (UniProt P77754 44-150)
T4 construct: Spy chaperone, residues 21-127; source: E. coli BL21 (DE3), purified (Ni-NTA, cation exchange, SEC); not shown: His6, N-terminal, cleaved; SUMO, N-terminal, cleaved
T4 sequence (looked up): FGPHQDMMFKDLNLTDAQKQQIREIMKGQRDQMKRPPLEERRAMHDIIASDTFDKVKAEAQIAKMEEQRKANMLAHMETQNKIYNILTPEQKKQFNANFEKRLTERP
In short: as §1

Spy_(21-130) [1] = target: T5, Spy_(21-130) (UniProt P77754 44-153)
T5 construct: Spy chaperone, residues 21-130; source: E. coli BL21 (DE3), purified (Ni-NTA, cation exchange, SEC); not shown: His6, N-terminal, cleaved; SUMO, N-terminal, cleaved
T5 sequence (looked up): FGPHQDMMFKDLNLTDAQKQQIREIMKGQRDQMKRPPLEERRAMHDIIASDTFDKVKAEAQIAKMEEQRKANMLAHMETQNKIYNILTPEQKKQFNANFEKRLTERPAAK
In short: as §1

Spy_(29-130) = target: T6, Spy_(29-130) (UniProt P77754 52-153)
T6 construct: Spy chaperone, residues 29-130; source: E. coli BL21 (DE3), purified (Ni-NTA, cation exchange, SEC); not shown: His6, N-terminal, cleaved; SUMO, N-terminal, cleaved
T6 sequence (looked up): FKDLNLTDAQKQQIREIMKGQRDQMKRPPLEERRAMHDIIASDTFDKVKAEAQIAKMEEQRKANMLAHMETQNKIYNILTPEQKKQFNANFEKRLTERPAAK
In short: as §1

Spy_(1-124) = target: T7, Spy_(1-124) (UniProt P77754 24-147)
T7 construct: source: E. coli BL21 (DE3), purified (Ni-NTA, cation exchange, SEC); not shown: His6, N-terminal, cleaved; SUMO, N-terminal, cleaved
T7 sequence (looked up): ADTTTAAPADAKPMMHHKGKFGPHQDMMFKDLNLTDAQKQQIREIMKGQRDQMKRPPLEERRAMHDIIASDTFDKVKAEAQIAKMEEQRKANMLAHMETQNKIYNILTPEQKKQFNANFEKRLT
In short: as §1

Spy_(21-130) [2] = target: T5, Spy_(21-130); remark: listed apart in the source
In short: as §1

B1: Im7 H40W L53A I54A (natural protein)
chain: MELKNSISDYTEAEFVQLLKEIEKENVAATDDVLDVLLEWFVKITEHPDGTDAAYYPSDNRDDSPEGIVKEIKEWRAANGKPGFKQG
modifications: biotin (EZ-link NHS-biotin, 1:1 molar ratio of biotin to protein)
notes: Im7 (colicin E7 immunity protein) with H40W L53A I54A; Spy was made with an N-terminal His6-SUMO tag that was cleaved; also called Im7AAW; partially folded client; source: purified by a similar procedure to Spy
- Kd (Spy_(29-124)): 323 nM
- Kd (Spy_(27-130)): 297 nM
- Kd (Spy_(24-124)): 1640 nM
- Kd (Spy_(21-127)): 1980 nM
- Kd (Spy_(21-130) [1]): 2490 nM
- koff (Spy_(29-130)): 0.0937 s⁻¹
- koff (Spy_(1-124)): 0.188 s⁻¹
- koff (Spy_(21-130) [2]): 0.461 s⁻¹
